Article PMC7708434 (Biochimica et biophysica acta. General subjects, 2020)
Like-named read-outs stand apart in the source and are kept apart here.

Assays:
[1] = biological target: the molecule itself; test: crystal structure
[2] = biological target: the molecule itself; test: crystal structure; remark: listed apart in the source

B1: 4-hydroxy-tetrahydrodipicolinate reductase (DapB) from Vibrio vulnificus strain CMCP6 (enzyme, UniProt Q8DEM0 1-269, looked up)
chain: MVRIAVAGAAGRMGRNLVKAAHHNPVAKVAAGSERPESSLVGVDLGELCGEGKFDVVVCDDLAKQIDQFDVIIDFTAPASTLNNLALCQQYGKSIVIGTTGFTEEQREQIDLVAQQVPVVMAPNYSVGVNLVFKLLEKAAKVMGDYCDIEIVEAHHRHKVDAPSGTAIGMGEAIAGAMGNKLSDVAVYAREGITGERTKDEIGFATIRAGDIVGEHTAMFADIGERVEITHKATDRMTFANGAVKAAVWLHEKPAGFYTMTDVLGLNDL
[1]
  stoichiometry N: 4

B2: 4-hydroxy-tetrahydrodipicolinate reductase (DapB) from Mycobacterium tuberculosis HKBS1 (enzyme)
chain: MRVGVLGAKGKVGATMVRAVAAADDLTLSAELDAGDPLSLLTDGNTEVVIDFTHPDVVMGNLEFLIDNGIHAVVGTTGFTAERFQQVESWLVAKPNTSVLIAPNFAIGAVLSMHFAKQAARFFDSAEVIELHHPHKADAPSGTAARTAKLIAEARKGLPPNPDATSTSLPGARGADVDGIPVHAVRLAGLVAHQEVLFGTEGETLTIRHDSLDRTSFVPGVLLAVRRIAERPGLTVGLEPLLDLH
[2]
  stoichiometry N: 4
